T1: COMP1 candidate peptide, (Donor) GMQQSVRTGLPS (K-Quencher)
T1 chain: GMQQSVRTGLPS

T2: TSP1-3 substrate, (HiLyteFluor-488)-KVTEENKELANELRR-K(QXL520)-NH2
T2 chain: KVTEENKELANELRRK

T3: TSP1-4 substrate, (HiLyteFluor-488)-EENKELANELRRPPL-K(QXL520)-NH2
T3 chain: EENKELANELRRPPLK

T4: TSP1-1 substrate, (HiLyteFluor-488)-DELSSMVLELRGLRT-K(QXL520)-NH2
T4 chain: DELSSMVLELRGLRTK

T5: TSP1-5 substrate, (HiLyteFluor-488)-SSMVLELRGLRT-K(QXL520)-NH2
T5 chain: SSMVLELRGLRTK

T6: COMP2 candidate peptide, (Donor) SPGFRC(Acm)EAC(Acm)PPGYS (K-Quencher)
T6 chain: SPGFRCEACPPGYS

T7: TSP1-2 substrate, (HiLyteFluor-488)-SSMVLELRGLRTIVT-K(QXL520)-NH2
T7 chain: SSMVLELRGLRTIVTK

T8: (HiLyteFluor-488)-DELSSMVLELRGLRT-K(QXL520)-E-NH2
T8 chain: DELSSMVLELRGLRTK

B1: rADAMTS-7 (Rat 1-575)-Flag (protein)
chain: LPTEGRAGLDIVHPVRVDAGGSFLSYELWPRVLRKRDVSAAQASSAFYQLQYQGRELLFNLTTNPYLLAPGFVSEIRRRSNLSNVHIQTSVPTCHLLGDVQDPELEGGFAAISACDGLRGVFQLSNEDYFIEPLDEVPAQPGHAQPHMVYKHKRSGQQDDSRTSGTCGVQGSPELKHQREHWEQRQQKRRQQRSISKEKWVETLVVADSKMVEYHGQPQVESYVLTIMNMVAGLYHDPSIGNPIHITVVRLIILEDEEKDLKITHHADDTLKNFCRWQKNVNMKGDDHPQHHDTAILLTRKDLCATMNHPCETLGLSHVAGLCHPQLSCSVSEDTGLPLAFTVAHELGHSFGIQHDGTGNDCESIGKRPFIMSPQLLYDRGIPLTWSRCSREYITRFLDRGWGLCLDDRPSKGVINFPSVLPGVLYDVNHQCRLQYGPSSAYCEDVDNVCYTLWCSVGTTCHSKMDAAVDGTSCGKNKWCLNGECVPEGFQPETVDGGWSGWSAWSVCSRSCGVGVRSSERQCTQPVPKNKGKYCVGERKRYRLCNLQACPENLYFQGDYKDDDDK
B2: purified ADAMTS-7 E389Q catalytic inactive proteins (protein)
chain: SVSKEKWVETLVVADAKMVEYHGQPQVESYVLTIMNMVAGLFHDPSIGNPIHITIVRLVLLEDEEEDLKITHHADNTLKSFCKWQKSINMKGDAHPLHHDTAILLTRKDLCAAMNRPCETLGLSHVAGMCQPHRSCSINEDTGLPLAFTVAHQLGHSFGIQHDGSGNDCEPVGKRPFIMSPQLLYDAAPLTWSRCSRQYITRFLDRGWGLCLDDPPAKDIIDFPSVPPGVLYDVSHQCRLQYGAYSAFCEDMDNVCHTLWCSVGTTCHSKLDAAVDGTRCGENKWCLSGECVPVGFRPEAV
B3: Rat/human ADAMTS-12 chimera, rPro-hCD (Rat 1-244/Human 241-543)-3xFLAG (protein)
chain: HGRQAQPWPVRFPDPKQEHFIKSLPEYHIVSPVQVDASGHFLSYGLHHPVTGSRKKRAAGGSGDQVYYRISHEEKNLFFNLTVNWEFLSNGYVVERRYGNLSHVKMAASSGQPCHLRGTVLQQGPTIRMGTAALSACQGLTGFFHLPHGDFFIEPVKKHPLTEEGYQPHVIYRRQSYRVPETKEPTCGLKDSLDNSVKQELQREKWERKNWPSRSLSRRSISKERWVETLVVADTKMIEYHGSENVESYILTIMNMVTGLFHNPSIGNAIHIVVVRLILLEEEEQGLKIVHHAEKTLSSFCKWQKSINPKSDLNPVHHDVAVLLTRKDICAGFNRPCETLGLSHLSGMCQPHRSCNINEDSGLPLAFTIAHELGHSFGIQHDGKENDCEPVGRHPYIMSRQLQYDPTPLTWSKCSEEYITRFLDRGWGFCLDDIPKKKGLKSKVIAPGVIYDVHHQCQLQYGPNATFCQEVENVCQTLWCSVKGFCRSKLDAAADGTQCGEKKWCMAGKCITVGKKPESIPGGGGSDYKDHDGDYKDHDIDYKDDDDK

What was measured:
[1] = molecular target: T1, COMP1 candidate peptide, (Donor) …
[2] = molecular target: T2, TSP1-3 substrate, …
[3] = molecular target: T3, TSP1-4 substrate, …
[4] = molecular target: T4, TSP1-1 substrate, …
[5] = molecular target: T5, TSP1-5 substrate, …
[6] = molecular target: T6, COMP2 candidate peptide, (Donor) …
[7] = molecular target: T7, TSP1-2 substrate, …
[8] = molecular target: T8, (HiLyteFluor-488)-DELSSMVLELRGLRT-K(QXL5 …)

Protein | kcat [1] [s⁻¹] | kcat [2] [s⁻¹] | kcat [3] [s⁻¹] | FRET peptide cleavage (Relative Fluorescence Units over time) [4] | kcat [4] [s⁻¹] | FRET peptide cleavage (Relative Fluorescence Units over time) [5] | kcat [5] [s⁻¹] | kcat [6] [s⁻¹] | FRET peptide cleavage (Relative Fluorescence Units over time) [7] | kcat [7] [s⁻¹] | FRET peptide cleavage (Relative Fluorescence Units over time) [1] | FRET peptide cleavage (Relative Fluorescence Units over time) [2] | FRET peptide cleavage (Relative Fluorescence Units over time) [3] | FRET peptide cleavage (Relative Fluorescence Units over time) [6] | FRET peptide cleavage (increase of fluorescence intensity) [8]
B1 | 8.17e-06 | 2.33e-05 | 4.33e-05 | Activity data from the rat ADAMTS-7 construct identified TSP1 S1 (SEQ ID NO: 4) as the substrate | 0.000167 | along with S2 and S5 peptides containing the E289⬇L290 cleavage site | 4.17e-05 | 8.33e-06 | along with S2 and S5 peptides containing the E289⬇L290 cleavage site | 0.000128 |  |  |  |  | 
B2 |  |  |  | Significant activity was not observed with substrates ... with incubation with purified ADAMTS-7 E389Q catalytic inactive proteins (data not shown |  | Significant activity was not observed with substrates ... with incubation with purified ADAMTS-7 E389Q catalytic inactive proteins (data not shown |  |  | Significant activity was not observed with substrates ... with incubation with purified ADAMTS-7 E389Q catalytic inactive proteins (data not shown |  | Significant activity was not observed with substrates ... with incubation with purified ADAMTS-7 E389Q catalytic inactive proteins (data not shown | Significant activity was not observed with substrates ... with incubation with purified ADAMTS-7 E389Q catalytic inactive proteins (data not shown | Significant activity was not observed with substrates ... with incubation with purified ADAMTS-7 E389Q catalytic inactive proteins (data not shown | Significant activity was not observed with substrates ... with incubation with purified ADAMTS-7 E389Q catalytic inactive proteins (data not shown | 
B3 |  |  |  |  |  |  |  |  |  |  |  |  |  |  | It was surprisingly found that the same substrate could be used for the paralogs ADAMTS-7 and ADAMTS-12

Reference: patent US20220412975
